Measurements: article PMC2575037 (Protein expression and purification, 2008)

T1: bDHFR (Bos taurus, UniProt P00376)
T1 sequence (P00376 1-187): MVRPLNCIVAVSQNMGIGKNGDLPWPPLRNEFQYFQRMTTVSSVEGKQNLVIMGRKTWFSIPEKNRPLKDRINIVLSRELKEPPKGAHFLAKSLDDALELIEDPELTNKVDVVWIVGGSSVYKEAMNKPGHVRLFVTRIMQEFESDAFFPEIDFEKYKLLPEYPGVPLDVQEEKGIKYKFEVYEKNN

T2: mDHFR (Mus musculus, UniProt P00375)
T2 sequence (P00375 1-187): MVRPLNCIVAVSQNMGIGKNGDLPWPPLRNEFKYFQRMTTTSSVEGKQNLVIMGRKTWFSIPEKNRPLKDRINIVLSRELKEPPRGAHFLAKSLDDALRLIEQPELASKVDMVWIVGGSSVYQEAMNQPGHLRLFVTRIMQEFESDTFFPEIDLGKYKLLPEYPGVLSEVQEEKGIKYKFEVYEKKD

B1: bDHFR (Bos taurus) (protein)
chain: T1 sequence (P00376 1-187)
B2: mDHFR (Mus musculus) (protein)
chain: T2 sequence (P00375 1-187)
B3: hDHFR (Homo sapiens) (protein)
chain: MVGSLNCIVAVSQNMGIGKNGDLPWPPLRNEFRYFQRMTTTSSVEGKQNLVIMGKKTWFSIPEKNRPLKGRINLVLSRELKEPPQGAHFLSRSLDDALKLTEQPELANKVDMVWIVGGSSVYKEAMNHPGHLKLFVTRIMQDFESDTFFPEIDLEKYKLLPEYPGVLSDVQEEKGIKYKFEVYEKND

Tests used:
bDHFR [1] = molecular target: T1, bDHFR; assay: spectrophotometric DHFR assay at […] nm; type: biochemical; details: read-out: % inhibition after preincubation with 0.68 mM
mDHFR = molecular target: T2, mDHFR; assay: spectrophotometric DHFR assay at […] nm; type: biochemical; details: read-out: % inhibition at 122 μM
bDHFR [2] = molecular target: T1, bDHFR; assay: spectrophotometric DHFR assay at […] nm; type: biochemical
purified protein [3] = substrate: Nc1nc2c(c(=O)[nH]1)N=C(CNc1ccc(C(=O)N[C@@H](CCC(=O)O)C(=O)O)cc1)CN2; assay: purified protein; details: 37 °C, KCl, co-substrate NADPH
purified protein [4] = substrate: NC(=O)C1=CN([C@@H]2O[C@H](COP(=O)(O)OP(=O)(O)OC[C@H]3O[C@@H](n4cnc5c(N)ncnc54)[C@H](OP(=O)(O)O)[C@@H]3O)[C@@H](O)[C@H]2O)C=CC1; assay: purified protein; type: biochemical, Bos taurus; details: 37 °C, KCl, co-substrate DHFA, varied: cofactor
purified protein [5] = substrate: NC(=O)C1=CN([C@@H]2O[C@H](COP(=O)(O)OP(=O)(O)OC[C@H]3O[C@@H](n4cnc5c(N)ncnc54)[C@H](OP(=O)(O)O)[C@@H]3O)[C@@H](O)[C@H]2O)C=CC1; assay: purified protein; type: biochemical, Mus musculus; details: 37 °C, KCl, co-substrate DHFA, varied: cofactor

Row | Molecule | Km (purified protein [3]) [µM] | kcat (purified protein [3]) [s⁻¹] | kcat/Km (purified protein [3]) [M⁻¹ s⁻¹] | also measured
1 | O=C(O[C@@H]1Cc2c(O)cc(O)cc2O[C@@H]1c1cc(O)c(O)c(O)c1)c1cc(O)c(O)c(O)c1 [EGCG] | – | – | – | inhibition at 680 µM (bDHFR [1]): 26%; inhibition at 122 µM (mDHFR): 18%
2 | CNCCC=C1c2ccccc2CCc2ccccc21 [nortriptyline] | – | – | – | Ki (bDHFR [2]): 840 ± 250 nM
3 | B1 | 0.35 ± 0.13 | 24 ± 7 | 6.8e+07 | Km (purified protein [4]): 3.2 ± 0.6 µM; kcat (purified protein [4]): 24 ± 7 s⁻¹
4 | B2 | 0.32 ± 0.05 | 29 ± 5 | 9.2e+07 | Km (purified protein [5]): 2.4 ± 0.5 µM; kcat (purified protein [5]): 29 ± 5 s⁻¹
5 | B3 | 2.7 ± 0.5 | 40 ± 2 | 1.5e+07 | –
